Reference: patent US9624506B2, “Glyphosate resistance enhancement” (Keygene N.V., priority 2011, dated 2017)
Entries after “also recorded” stand apart in the source; their conditions may differ.

Tests used:
E. coli = assay: Complementation assay in E. coli using A. thaliana EPSPS variants, growth in M9 medium with glyphosate; format: cell-based; settings: 30 mM glyphosate; for glyphosate resistance (bacterial growth, OD600 over time): E. coli BL21 expressing A. thaliana EPSPS variant, M9 medium, 1 mM IPTG, 25° C.
Source text: Each of these EPSPS variants was then cloned as a 1576 bps EcoRI-BamHI fragment into the vector pET302 NT HIS (Invitrogen, product K630203), fusing the EPSPS variants to a 6× His tag and allowing inducible protein expression with IPTG in E. coli. These constructs were introduced into the E. coli expression strain BL21 OAS (Invitrogen) for complementation assays.
E. coli is unable to grow in minimal M9 growth medium supplemented with glyphosate due to inhibition of the activity of the endogenous bacterial EPSP synthase AroA. Bacterial growth can be restored by complementation with a glyphosate resistant plant EPSPS gene. The E. coli strains containing the A. thaliana EPSPS variants were grown overnight in 10 ml LB medium containing 100 μg/ml carbenicillin (Duchefa). Strains were then diluted 4 fold in the same medium and allowed to grow for a further 4 hours. The […] of each culture was then measured and 1.5 ml culture was centrifuged at 4000 rpm for 10 minutes. The bacterial pellet was resuspended in 500 μl M9 medium (12.8 g/l Na2HPO4, 3.0 g/l KH2PO4, 0.5 g/l NaCl, 1.0 g/l NH4Cl, 2.0 g/l glucose, 0.4940 g/l MgSO4.7H2O, 15 mg/l CaCl2.2H2O, thiamine and 10 mg/l FeSO4.7H2O) used to inoculate 10 ml M9 medium containing 1 mM IPTG and 100 μg/ml carbenicillin and 30 mM glyphosate to an OD600 of 0.1. Identical cultures for each strain were also made lacking glyphosate and these were used to assess the growth of each strain without selection. The cultures were then grown at 25° C. and the OD600 was measured over time to assess bacterial growth (see FIG. 2).

Arabidopsis thaliana = assay: Glyphosate tolerance of transgenic Arabidopsis lines (average seedling weight +Gly/-Gly); format: in vivo; settings: transgenic Arabidopsis lines overexpressing EPSPS gene; MS20 medium, 400 μM glyphosate, 4 weeks
Procedure: The mutated Arabidopsis EPSPS genes tested in E. coli (see Example 1) were cloned into the binary vector pEARLEYGATE100 (The Plant J. 2006; 45:616-629). Briefly, the EPSPS genes were isolated as BamHI and SacI fragments comprising the complete ORF's and then inserted into the same unique sites present in the binary vector. […] This series of binary vectors were electroporated to the Agrobacterium tumefaciens strain GV2260 and bacterial colonies were selected on LB medium containing 100 μg/ml spectinomycin, using methods known to the skilled person.
Seeds of Arabidopsis thaliana (ecotype Colombia) were sown on soil and once germinated a single seedling was placed in a 5 cm×5 cm pot and allowed to grow until the first influorescence appeared. At this stage the plants were then transformed using the floral dip method. Briefly, the Agrobacterium strains were grown overnight in 50 ml liquid LB medium containing 100 μg/ml spectinomycin at 28° C. and then this culture was centrifuged at 4000 rpm for 10 minutes. The pellets were then resuspended in a 5% sucrose solution containing 0.02% Silwet (Lehle Seeds). The Arabidopsis plants were dipped into this culture and then incubated overnight in the dark at 25° C. The plants were then allowed to grow further in the greenhouse and after 7 days the dipping procedure was repeated. The plants were then allowed to set seed which was then germinated on soil. For selection of transformed Arabidopsis seedlings, a solution of glufosinate was prepared (0.1 mg/ml glufosinate ammonium+0.005% silwet) and sprayed on the seedlings. After 7 days the surviving seedlings were identified, grown to maturity and the seeds were collected.
We performed a segregation analysis on the seed of the transgenic lines to estimate the T-DNA copy number. Seed from each of the transgenic lines was sterilized with a 2% hypochlorite solution and washed with sterile water. Approximately 100 seeds per line were then placed on MS20 medium containing 0.1 mg/ml glufosinate ammonium and the number of surviving seedlings was scored after 20 days. The lines with a single T-DNA copy that segregated […] (resistance:sensitivity) to the glufosinate were selected for further phenotyping.
Seeds from the transgenic Arabidopsis lines were sterilized and then placed on MS20 medium containing 0.1 mg/ml glufosinate ammonium and +/−400 μM glyphosate and were grown for 4 weeks. After this period the seedlings were removed from the growth plates and the average seedling weight was determined. The degree of glyphosate resistance for each line was determined by dividing the average seedling weight in the presence of glyphosate by the average seedling weight found in the absence of glyphosate.

[1] = E. coli EPSPS, Eschenburg et al. 2002; cited from earlier work

Molecule	glyphosate resistance (bacterial growth, OD600 over time) (E. coli)	glyphosate resistance (ratio of average seedling weight +Gly/-Gly) (Arabidopsis thaliana)	Km of PEP [1]	enhancement of resistance levels (E. coli; N44D combined with P106L, after 18 hours of growth)
P106L: A. thaliana EPSPS with Proline at position 106 changed into Leucine (SEQ ID NO:12) (protein, listed as Arabidopsis thaliana) MAQVSRICNGVQNPSLISNLSKSSQRKSPLSVSLKTQQHPRAYPISSSWGLKKSGMTLIGSELRPLKVMSSVSTAEKASEIVLQPIREISGLIKLPGSKSLSNRILLLAALSEGTTVVDNLLNSDDINYMLDALKRLGLNVETDSENNRAVVEGCGGIFPASIDSKSDIELYLGNAGTAMRLLTAAVTAAGGNASYVLDGVPRMRERPIGDLVVGLKQLGADVECTLGTNCPPVRVNANGGLPGGKVKLSGSISSQYLTALLMSAPLALGDVEIEIVDKLISVPYVEMTLKLMERFGVSVEHSDSWDRFFVKGGQKYKSPGNAYVEGDASSASYFLAGAAITGETVTVEGCGTTSLQGDVKFAEVLEKMGCKVSWTENSVTVTGPPRDAFGMRHLRAIDVNMNKMPDVAMTLAVVALFADGPTTIRDVASWRVKETERMIAICTELRKLGATVEEGSDYCVITPPKKVKTAEIDTYDDHRMAMAFSLAACADVPITINDPGCTRKTFPDYFQVLERITKH	good level of resistance	reasonable resistance		
N44D: A. thaliana EPSPS with Asparagine at position 44 changed into Aspartic Acid (SEQ ID NO:11) (protein, listed as Arabidopsis thaliana) MAQVSRICNGVQNPSLISNLSKSSQRKSPLSVSLKTQQHPRAYPISSSWGLKKSGMTLIGSELRPLKVMSSVSTAEKASEIVLQPIREISGLIKLPGSKSLSNRILLLAALSEGTTVVDDLLNSDDINYMLDALKRLGLNVETDSENNRAVVEGCGGIFPASIDSKSDIELYLGNAGTAMRPLTAAVTAAGGNASYVLDGVPRMRERPIGDLVVGLKQLGADVECTLGTNCPPVRVNANGGLPGGKVKLSGSISSQYLTALLMSAPLALGDVEIEIVDKLISVPYVEMTLKLMERFGVSVEHSDSWDRFFVKGGQKYKSPGNAYVEGDASSASYFLAGAAITGETVTVEGCGTTSLQGDVKFAEVLEKMGCKVSWTENSVTVTGPPRDAFGMRHLRAIDVNMNKMPDVAMTLAVVALFADGPTTIRDVASWRVKETERMIAICTELRKLGATVEEGSDYCVITPPKKVKTAEIDTYDDHRMAMAFSLAACADVPITINDPGCTRKTFPDYFQVLERITKH	some resistance to glyphosate; also recorded: provides tolerance to glyphosate	lead to glyphosate resistance		
G101A: EPSPS with Glycine at position 101 changed into Alanine (position 96 in E. coli; SEQ ID NO:17) (protein, listed as Arabidopsis thaliana) MAQVSRICNGVQNPSLISNLSKSSQRKSPLSVSLKTQQHPRAYPISSSWGLKKSGMTLIGSELRPLKVMSSVSTAEKASEIVLQPIREISGLIKLPGSKSLSNRILLLAALSEGTTVVDNLLNSDDINYMLDALKRLGLNVETDSENNRAVVEGCGGIFPASIDSKSDIELYLGNAATAMRPLTAAVTAAGGNASYVLDGVPRMRERPIGDLVVGLKQLGADVECTLGTNCPPVRVNANGGLPGGKVKLSGSISSQYLTALLMSAPLALGDVEIEIVDKLISVPYVEMTLKLMERFGVSVEHSDSWDRFFVKGGQKYKSPGNAYVEGDASSASYFLAGAAITGETVTVEGCGTTSLQGDVKFAEVLEKMGCKVSWTENSVTVTGPPRDAFGMRHLRAIDVNMNKMPDVAMTLAVVALFADGPTTIRDVASWRVKETERMIAICTELRKLGATVEEGSDYCVITPPKKVKTAEIDTYDDHRMAMAFSLAACADVPITINDPGCTRKTFPDYFQVLERITKH			increase	
N44D+P106L: A. thaliana EPSPS double mutant N44D and P106L (SEQ ID NO:13) (protein, listed as Arabidopsis thaliana) MAQVSRICNGVQNPSLISNLSKSSQRKSPLSVSLKTQQHPRAYPISSSWGLKKSGMTLIGSELRPLKVMSSVSTAEKASEIVLQPIREISGLIKLPGSKSLSNRILLLAALSEGTTVVDDLLNSDDINYMLDALKRLGLNVETDSENNRAVVEGCGGIFPASIDSKSDIELYLGNAGTAMRLLTAAVTAAGGNASYVLDGVPRMRERPIGDLVVGLKQLGADVECTLGTNCPPVRVNANGGLPGGKVKLSGSISSQYLTALLMSAPLALGDVEIEIVDKLISVPYVEMTLKLMERFGVSVEHSDSWDRFFVKGGQKYKSPGNAYVEGDASSASYFLAGAAITGETVTVEGCGTTSLQGDVKFAEVLEKMGCKVSWTENSVTVTGPPRDAFGMRHLRAIDVNMNKMPDVAMTLAVVALFADGPTTIRDVASWRVKETERMIAICTELRKLGATVEEGSDYCVITPPKKVKTAEIDTYDDHRMAMAFSLAACADVPITINDPGCTRKTFPDYFQVLERITKH	strongly enhanced	enhanced		2.5 fold
N44D+S179N: A. thaliana EPSPS double mutant N44D and S179N (SEQ ID NO:16) (protein, listed as Arabidopsis thaliana) MAQVSRICNGVQNPSLISNLSKSSQRKSPLSVSLKTQQHPRAYPISSSWGLKKSGMTLIGSELRPLKVMSSVSTAEKASEIVLQPIREISGLIKLPGSKSLSNRILLLAALSEGTTVVDDLLNSDDINYMLDALKRLGLNVETDSENNRAVVEGCGGIFPASIDSKSDIELYLGNAGTAMRPLTAAVTAAGGNASYVLDGVPRMRERPIGDLVVGLKQLGADVECTLGTNCPPVRVNANGGLPGGKVKLSGSISNQYLTALLMSAPLALGDVEIEIVDKLISVPYVEMTLKLMERFGVSVEHSDSWDRFFVKGGQKYKSPGNAYVEGDASSASYFLAGAAITGETVTVEGCGTTSLQGDVKFAEVLEKMGCKVSWTENSVTVTGPPRDAFGMRHLRAIDVNMNKMPDVAMTLAVVALFADGPTTIRDVASWRVKETERMIAICTELRKLGATVEEGSDYCVITPPKKVKTAEIDTYDDHRMAMAFSLAACADVPITINDPGCTRKTFPDYFQVLERITKH		confers resistance		
wild type (WT): Arabidopsis thaliana EPSPS (At2g45300), unmutated, SEQ ID NO:9/10 (protein, listed as Arabidopsis thaliana) MAQVSRICNGVQNPSLISNLSKSSQRKSPLSVSLKTQQHPRAYPISSSWGLKKSGMTLIGSELRPLKVMSSVSTAEKASEIVLQPIREISGLIKLPGSKSLSNRILLLAALSEGTTVVDNLLNSDDINYMLDALKRLGLNVETDSENNRAVVEGCGGIFPASIDSKSDIELYLGNAGTAMRPLTAAVTAAGGNASYVLDGVPRMRERPIGDLVVGLKQLGADVECTLGTNCPPVRVNANGGLPGGKVKLSGSISSQYLTALLMSAPLALGDVEIEIVDKLISVPYVEMTLKLMERFGVSVEHSDSWDRFFVKGGQKYKSPGNAYVEGDASSASYFLAGAAITGETVTVEGCGTTSLQGDVKFAEVLEKMGCKVSWTENSVTVTGPPRDAFGMRHLRAIDVNMNKMPDVAMTLAVVALFADGPTTIRDVASWRVKETERMIAICTELRKLGATVEEGSDYCVITPPKKVKTAEIDTYDDHRMAMAFSLAACADVPITINDPGCTRKTFPDYFQVLERITKH	able to complement bacterial growth at later time points			
